The results in this text go back to PMC10960667 (Molecular cell, 2024).

The target of this assay is T1, recombinant full-length IκBζ wild type with 8×His-MBP tag (human, UniProt Q9BYH8-1 1-718).
T1 sequence (looked up): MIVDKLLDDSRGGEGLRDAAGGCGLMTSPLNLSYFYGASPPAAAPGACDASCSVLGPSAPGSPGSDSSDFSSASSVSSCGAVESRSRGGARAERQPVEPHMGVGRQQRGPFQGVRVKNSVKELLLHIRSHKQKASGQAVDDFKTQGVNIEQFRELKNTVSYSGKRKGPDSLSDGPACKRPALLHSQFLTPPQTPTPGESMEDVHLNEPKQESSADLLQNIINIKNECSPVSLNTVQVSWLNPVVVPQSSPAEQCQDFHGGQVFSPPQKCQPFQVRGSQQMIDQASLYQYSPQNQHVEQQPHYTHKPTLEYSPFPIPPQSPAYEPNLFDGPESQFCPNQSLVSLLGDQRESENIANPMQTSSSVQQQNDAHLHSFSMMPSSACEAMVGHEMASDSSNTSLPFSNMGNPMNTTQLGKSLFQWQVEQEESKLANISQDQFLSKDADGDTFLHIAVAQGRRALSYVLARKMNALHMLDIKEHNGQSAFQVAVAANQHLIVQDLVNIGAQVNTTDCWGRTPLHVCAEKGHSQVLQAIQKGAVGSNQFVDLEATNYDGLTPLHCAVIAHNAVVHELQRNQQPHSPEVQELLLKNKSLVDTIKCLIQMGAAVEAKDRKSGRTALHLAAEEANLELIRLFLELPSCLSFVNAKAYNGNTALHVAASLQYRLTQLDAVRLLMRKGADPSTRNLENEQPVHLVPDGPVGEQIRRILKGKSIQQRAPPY
Briefly: pull-down.

B1: recombinant full-length OCT6 with N-terminal 6×His-ECFP tag (natural protein, UniProt Q03052 1-451, looked up)
chain: MATTAQYLPRGPGGGAGGTGPLMHPDAAAAAAAAAAAERLHAGAAYREVQKLMHHEWLGAGAGHPVGLAHPQWLPTGGGGGGDWAGGPHLEHGKAGGGGTGRADDGGGGGGFHARLVHQGAAHAGAAWAQGSTAHHLGPAMSPSPGASGGHQPQPLGLYAQAAYPGGGGGGLAGMLAAGGGGAGPGLHHALHEDGHEAQLEPSPPPHLGAHGHAHGHAHAGGLHAAAAHLHPGAGGGGSSVGEHSDEDAPSSDDLEQFAKQFKQRRIKLGFTQADVGLALGTLYGNVFSQTTICRFEALQLSFKNMCKLKPLLNKWLEETDSSSGSPTNLDKIAAQGRKRKKRTSIEVGVKGALESHFLKCPKPSAHEITGLADSLQLEKEVVRVWFCNRRQKEKRMTPAAGAGHPPMDDVYAPGELGPGGGGASPPSAPPPPPPAALHHHHHHTLPGSVQ
For the molecule B1, the binding result is “binds”.
